Biological target: T1, GST-LuxR (Vibrio harveyi, UniProt P21308 1-205)
T1 sequence: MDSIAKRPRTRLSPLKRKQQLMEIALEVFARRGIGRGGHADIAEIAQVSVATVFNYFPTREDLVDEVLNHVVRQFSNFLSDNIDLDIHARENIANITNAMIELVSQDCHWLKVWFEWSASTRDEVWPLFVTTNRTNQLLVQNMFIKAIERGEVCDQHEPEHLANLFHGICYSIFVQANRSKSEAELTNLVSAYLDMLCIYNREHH
Test: fluorescence anisotropy; no thiophenone; Kd value only in Figure 4B; 30°C; annealing in NaCl-Tris-EDTA buffer; binding buffer, salt and pH not stated (as in ref 37); ex 480 nm, em 535 nm
Settings: protein: recombinant; chain copies: 2; label: 5'-fluorescein on strand 1; blunt

B1: V. harveyi consensus LuxR binding sequence (dsDNA)
DNA 1: TATTGATAAATTTATCAATAA
DNA 2: TTATTGATAAATTTATCAATA
binding result: binds
